Consider seven molecules from PMC4006948 (Molecular cell, 2013).

T1: recombinant Cmr2 (TTHB160), no tag (Thermus thermophilus HB8, UniProt Q53W09 1-584)
T1 sequence (looked up): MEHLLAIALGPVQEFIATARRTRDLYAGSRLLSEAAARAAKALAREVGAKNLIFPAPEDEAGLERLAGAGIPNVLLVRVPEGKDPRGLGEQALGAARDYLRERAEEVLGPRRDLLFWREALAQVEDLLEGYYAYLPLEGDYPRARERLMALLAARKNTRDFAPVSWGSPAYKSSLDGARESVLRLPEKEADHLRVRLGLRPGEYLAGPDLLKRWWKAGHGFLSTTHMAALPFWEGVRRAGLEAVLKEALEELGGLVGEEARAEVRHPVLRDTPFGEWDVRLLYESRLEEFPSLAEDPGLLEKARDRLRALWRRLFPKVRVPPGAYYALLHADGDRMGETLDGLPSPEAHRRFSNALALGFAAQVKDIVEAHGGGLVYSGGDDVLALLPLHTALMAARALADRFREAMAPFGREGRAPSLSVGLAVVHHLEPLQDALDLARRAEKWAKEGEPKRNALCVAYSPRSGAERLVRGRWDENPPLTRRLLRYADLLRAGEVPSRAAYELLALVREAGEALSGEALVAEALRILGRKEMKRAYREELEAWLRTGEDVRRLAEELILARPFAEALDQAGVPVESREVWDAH

B1: Cmr5 (TTHB164) (natural protein, Thermus thermophilus HB8 (endogenous), UniProt Q53W05 1-114, looked up)
chain: MRTRSQVWAQKAYEKVREAAKGEGRGEYRDMALKLPVLVRQAGLSQALAFVDSRGKEAHKALGNDLAQVLGYRDLRELAEAAREAELLQYLRLTREVLAAAEWFKRFAQALIEE
B2: Cmr2 (TTHB160) (natural protein, Thermus thermophilus HB8 (endogenous), UniProt Q53W09 1-584, looked up)
chain: T1 sequence (looked up)
B3: recombinant Cmr3 (TTHB161), no tag (natural protein, Thermus thermophilus HB8, UniProt Q53W08 1-361, looked up)
chain: MLIEPRDPLIVRDGRPFTNSPGARAKSLPFPLPQTLAGAYRTRRALLEGLPLPERAEEVLRWGLRGPLLAEEGEGGWRLLAPRPLDALKLGEALYPLRPLELPQGAGTNLPEGLSPVGLPSPALKEKPAPLPAFWYWESFLEWLLQDAPAGFAPRGHEGPVPETRTHVALDPAAQTAREGFLFQTSGLEFVRGRRRLALVLWPEGPEPEGVFPLGGERRLAFWQKGGPGVPPLPEEVVAGLLRHRAARLVFLTPAFLGEAYLPKGRAFQGASVVAAVVGRPLAVSGWNLKEGKPKPSRRAVPAGSVYFVRLPEAWGEGEVRDWAEKVWFQNLSEEEQDRRDGFGLAALGLWDGKLRRWEEA
B4: Cmr3 (TTHB161) (natural protein, Thermus thermophilus HB8 (endogenous), UniProt Q53W08 1-361, looked up)
chain: B3 chain
B5: Cmr6 (TTHB165) with a (His)6 tag at its C-terminus (natural protein, Thermus thermophilus HB8, UniProt Q53W04 2-348, looked up)
chain: GRRSALEGVRLPQGKEPHRGLWLDKFLRSARREDTEAKRVLVREAAGIPEPGEYRAFFKRYRGALEALGAEIREARTLSRLVVGLGGEGVLETALTLHRAYGVPYIPGSALKGLASRYAHLYLEGEAWRRDLARFHRGEAQAGLFGTTEEQGLVVFWDALPLPGKWKLHPDILNPHHPDYYGSVKAPPADWDGPKPVPFLSATGTFLLALSPAPGVSPEEAGPWLRAAWRILAWALREEGVGAKTSSGYGRMALEEPASQGEKPLAPGPSPVLQDLLTWARALSYREVPRFLASQAEAILGLSVEEAQALRRALEERGFLRNPQDLKRWRKEHPGLEGVLAKLGLSA
B6: Cmr4 (TTHB163) (natural protein, Thermus thermophilus HB8 (endogenous), UniProt Q53W06 2-286, looked up)
chain: SHVALLFLHALSPLHAGTGQGIGAIDLPIAREKATGIPYLPGSSLKGVLRDRASAWDRDTLFAVFGPDTENASEHAGAVQVGDAKLLLLPVRSLYGVFALVASPYLLERFRREALMAGLQPPGVPGLQDPTRVLLAPGSRLLGDGEKVYLEDLDLKAQGEEGVAAWERWLAERTEAPVLGRLAVVHDDLMGFLLETATEVVARIRLDDETKTVAKGALWYEESLPAESLLYALVRADRSFRKGKELPPEGVWALFRGVLEEGGGVLQLGGKATVGRGLCRIVVGR
B7: Cmr1 (TTHB162) (natural protein, Thermus thermophilus HB8 (endogenous), UniProt Q53W07 1-395, looked up)
chain: MRRAFREAFSPRRKEEGGVLVRRDGARVLAWERTYTLLTPLFGGGVEPREADPVSVVRATAVRGHLRFWWRAVRGWRAGGSLERLWELESALFGSAGEGGASPLSVEVEVLREGEKVGIAQYGRAVQWYLGFPLRGDKEWAPVKEGVAFRLRLRFPEKVGELNFWEELEAALWAWETFGGIGARTRRGFGALLPQGAGVPGEEEIREKLRQYGQKAGWPEGVPHLTPKSFVRVVPLSWRELAERYQAFRQARPGGDPRSPGRSYWPEPDGVRRLTGRHAPHHLPRHPVHKFPRAHFGLPIIFHFKDRGDPPDTTLRLKEADRRASPLLFRPLGEGQKPCVVAVLEGARFPGEKLVLEGKDGRTWDVDPWLTPEEAQKIPVLGGEVDPVLAFVKSL

The series “Cmr4 (TTHB163)” addresses B6. The series can be described thus: negative-stain electron microscopy, single particle reconstruction.
In series [1] the target is B5. Put plainly: native MS.
Series [2] concerns the target T1, recombinant Cmr2 (TTHB160), no tag. The series can be described thus: native MS.
Series [3] concerns the target B2. Put plainly: negative-stain electron microscopy, single particle reconstruction.
The target in series [4] is B2. Put plainly: affinity purification with mass spectrometry.
The series “Cmr1 (TTHB162)” concerns the target B7. The series can be described thus: affinity purification with mass spectrometry.
The series “Cmr3 (TTHB161)” deals with B4. Put plainly: affinity purification with mass spectrometry.
Series [5] deals with the molecule itself. The series can be described thus: negative-stain electron microscopy, single particle reconstruction.

The term stoichiometry N denotes the number of molecules, sites or subunits per partner or assembly. As for B1, the binding result with Cmr4 (TTHB163) is “binds”. In addition, the “stoichiometry N” value in series [1] worked out at 3 copies per Cmr6. B2: the “stoichiometry N” value in series [1] is 1 copies per Cmr6.

Turning to B3, in series [2], the binding result is “binds”. As for B4, the binding result in the series with Cmr2 (TTHB160) [3] is reported as “binds”. In addition, the “stoichiometry N” value in series [1] came out at 1 copies per Cmr6. B5: the binding result in the series with Cmr2 (TTHB160) [4], with Cmr1 (TTHB162) and in the series with Cmr3 (TTHB161) was “binds” each time.

Turning to B6, the figures for the “stoichiometry N” value in series [5] and in series [1] were 4 and 4 copies per Cmr6, respectively. As to B7, the “stoichiometry N” value in series [1] was 1 copies per Cmr6.
